The values below are quoted from earlier work in PMC5897016.

The target in the series is Complement C5 (Homo sapiens) (UniProt P01031).

As for eculizumab, the Kd – broadly, a measure of binding affinity in units of concentration – is less than 0.05 nM.
